Tested on: MS2 coat protein
Assay: apparent KD of MS2 coat protein; designed switch direction (-1 OFF switch, 1 ON switch): 1; higher = weaker reporter binding
Method in brief: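 Designed RNA switches with common flanks were transcribed on Illumina chips by stalled E. coli RNA polymerase and titrated with SNAP-549-labelled MS2 coat protein, from 0.7 or 1.5 nM doubling to 3 µM, in Tris-HCl pH 7.5 buffer with KCl, MgCl2, BSA, DTT, tRNA and Tween-20. Steps lasted 0.8–1.5 h (lowest) to 10–20 min (highest). Titrations ran without input, with 200 uM small-molecule ligand, or with an oligonucleotide input. Normalised cluster fluorescence was curve-fitted, and apparent KD is the per-design median over clusters.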

[1] = Eterna round: R95, input ligand: FMN 200 uM
[2] = Eterna round: R95, input ligand: microRNA oligo, concentration not stated
[3] = Eterna round: R95, input ligand: none
[4] = input ligand: microRNA oligo, concentration not stated

Row | Sequence | apparent KD of MS2 coat protein [1] | apparent KD of MS2 coat protein [2] | apparent KD of MS2 coat protein [3] | apparent KD of MS2 coat protein (input ligand: FMN 200 uM) | apparent KD of MS2 coat protein [4] | apparent KD of MS2 coat protein (input ligand: none)
1 | AACAAUCUAUCUGAGGAUAUCAUGAAAAAAACAUGAGGAUCACCCAUGUGCAGGAAAACUGCAUAUGAGAAGGCAGAUAGAUUGC [salish99_SS2_r3_004] (puzzle: Same State 2) | 32.5 nM | 785 nM | 1690 nM |  |  | 
2 | GUGGUCAGACAUGAGGAUCACCCAUGUGGAAUAAAUAAGGUCAAGGAUAUGGAAUAUAGGAUAUACCAGAAGGUGAGGUUGGUG (Eterna round: R96, puzzle: Same State NG 3) |  |  |  | 245 nM | 167 nM | 225 nM
3 | ACAUGAGAGAUAGGAUAUCUUGUACCUACAUGUGACAUGAGGAUCACCCAUGUGGUAAGUAUGAGGGAGAAGGGUCAGAUAUGU [Equivalence 45 - Jieux - Same State NG 2] (Eterna round: R96, puzzle: Same State NG 2) |  |  |  |  | 42.7 nM | 
4 | AAUUAAUUAAUACAUGAGGAUCACCCAUGUAAUUAUUAGAUCUAGGAUAUCAGCUCGUUUAGAGCUGAGAAGGAGAUCACAUGU [SSNG3/18-B3] (Eterna round: R96, puzzle: Same State NG 3) |  |  |  |  | 15.1 nM | 
5 | CGAGCCGGCACUGAGGAUAUUCAUAUUUAAACAUGAGGAUCACCCAUGUAGGCCAGAAGGCCUUGGGAGAAGGCAGGUCGGCUCC [salish99_ss2_r3_080] (Eterna round: R96, puzzle: Same State 2) |  |  |  | 22.3 nM | 220 nM | 312 nM
6 | UGAAUAAUGUUAGGAUAUACAUGAGGAAUCCUCGUAGAAGGAACAUGACAUGAGGAUCACCCAUGUAGCGCUCAGAAGAGCGCA [Mat - Same State NG 1 - JL mod - D50] (Eterna round: R96, puzzle: Same State NG 1) |  |  |  |  | 73.4 nM | 
7 | CUACAGGCCAGAGGAUAUGGGAAAGGAAGUGUACCAGAAGGUUGGCCUCCUGAGUACAUGAGGAUCACCCAUGUAGAAAGGCGA [PowerStrip SSNG 1.6] (Eterna round: R96, puzzle: Same State NG 1) |  |  |  | 143 nM | 41.6 nM | 79.9 nM
8 | AGUCCAGCCUAAGCUGGACAAAAGCAUGUACAUGAGGAUCACCCAUGUUCAUGUACAAGCUUUUUGCAAGUCAAAAU [Mat - hsa-mir-208a - Mod of JL - 79] (puzzle: Sensor for hsa-mir-208a) | 1050 nM | 19.3 nM | 1050 nM |  |  | 
9 | GGAGCAGGGUGAGGAUAUGUAAAAUUCGAAAGGACAGAAGGCACUUAACCAACAUGAGGAUCACCCAUGUAGGCGACGGCACCA [Eternabot solution 8] (Eterna round: R96, puzzle: Same State NG 1) |  |  |  |  | 19.9 nM | 
10 | UUGUUUUGUAAUUAACAUGAGGAUCACCCAUGUCUUGGCACAGAGGAUAUACAUGUUUGUUUGUAGUAGAAGGCUGUUUAUUGU [JR_SSNG3_Sub096] (Eterna round: R96, puzzle: Same State NG 3) |  |  |  | 128 nM | 116 nM | 198 nM
11 | CGUCGCUGUCGAGAGGAUAUGCGGUGAUGGACAUGAGGAUCACCCAUGUUAGCGAUAGUAUCACGGUAGAAGGCUCUUACGACUG [Soteed Omei mod 26] (puzzle: Same State 2) |  | 26.7 nM |  |  |  | 
12 | GAGAGAUGGCGAGGAUAUUCGGUGAUAAUGAUAGAAGAAGGCGCUGACAUGAGGAUCACCCAUGUGGGAAUAAUCCAGAGAGAG [Parity 18 - Jieux - Same State NG 1] (Eterna round: R96, puzzle: Same State NG 1) |  |  |  | 283 nM | 73.8 nM | 226 nM
13 | AAGAGACAUGAGGAUCACCCAUGUUUGAAUAAUAUAGGAUAUAUACCACAUGUAAAAGAAAUAGAAGGAUAAGAAA [Default title] (puzzle: Same State 1) | 77 nM | 114 nM | 534 nM |  |  | 

Source: the supplement of paper PMC9170038
